Results on one molecule are retold here after patent CN114409777A (SHAANXI HISINOVEC SCIENCE AND TECH LIMITED COMPANY, dated 2022).

In the assay the target is T1, 脆弱拟杆菌毒素BFT1全长蛋白(BFT1-sFL)，不含信号肽 (Bacteroides fragilis (产肠毒素脆弱拟杆菌, ETBF), UniProt P54355 26-405).
T1 construct: domain: 不含信号肽全长 (full length without signal peptide, pro domain kept); Recombinant protein from E. coli; This is not the processed catalytic domain alone: the pro domain is still present; also called BFT重组蛋白; BFT全长
T1 sequence: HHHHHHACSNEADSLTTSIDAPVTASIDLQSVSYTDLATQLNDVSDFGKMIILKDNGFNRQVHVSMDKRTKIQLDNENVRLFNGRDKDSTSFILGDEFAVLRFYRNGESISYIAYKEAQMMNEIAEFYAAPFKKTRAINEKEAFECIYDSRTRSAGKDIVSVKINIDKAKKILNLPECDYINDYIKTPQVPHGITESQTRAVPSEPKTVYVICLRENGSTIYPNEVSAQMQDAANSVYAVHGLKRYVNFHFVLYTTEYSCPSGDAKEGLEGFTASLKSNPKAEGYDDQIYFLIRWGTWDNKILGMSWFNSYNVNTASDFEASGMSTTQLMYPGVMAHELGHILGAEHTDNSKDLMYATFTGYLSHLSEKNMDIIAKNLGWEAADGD
Briefly: ITC (Microcal PEAQ-ITC), 20℃, nanobody about 20 μM, BFT1-sFL about 200 μM, 20mM Tris-HCl pH 8.0, 150mM NaCl, 5% glycerol.

The term Kd denotes the free concentration of one partner at which half of the binding sites on the other are occupied at equilibrium, for simple one-to-one binding.

B1: 结直肠癌相关的抗脆弱拟杆菌毒素蛋白激活体的特异性纳米抗体Nb3.27 (VHH)
VHH: QVQLQESGGGLVQAGGSLRLSCTYSGQTFSAWAMGWFRQAPGKERETVATINWNGERTQYADAVKGRFTISRDNAKDTVYLEMNSLKPEDTAVYYCASMMGTYYSGSPKNWGQGTQVTVSS
notes: also called BFT-211纳米抗体; BFT1-sFL纳米抗体
In turn, B1 returned a Kd of 15.3 nM.
